Paper doi:10.1101/2025.01.22.634223 (bioRxiv, 2025)

B1: GST::hGDI1 (natural protein)
chain: MDEEYDVIVLGTGLTECILSGIMSVNGKKVLHMDRNPYYGGESSSITPLEELYKRFQLLEGPPESMGRGRDWNVDLIPKFLMANGQLVKMLLYTEVTRYLDFKVVEGSFVYKGGKIYKVPSTETEALASNLMGMFEKRRFRKFLVFVANFDENDPKTFEGVDPQTTSMRDVYRKFDLGQDVIDFTGHALALYRTDDYLDQPCLETVNRIKLYSESLARYGKSPYLYPLYGLGELPQGFARLSAIYGGTYMLNKPVDDIIMENGKVVGVKSEGEVARCKQLICDPSYIPDRVRKAGQVIRIICILSHPIKNTNDANSCQIIIPQNQVNRKSDIYVCMISYAHNVAAQGKYIAIASTTVETTDPEKEVEPALELLEPIDQKFVAISDLYEPIDDGCESQVFCSCSYDATTHFETTCNDIKDIYKRMAGTAFDFENMKRKQNDVFGEAEQ
B2: 6HIS::MYC::RAB1A::6HIS (natural protein)
chain: not shown

Columns and labels:
6HIS::MYC::PIAS1::6HIS = 6HIS::MYC::PIAS1::6HIS (human, UniProt O75925 1-651); test: pull-down
Chain of 6HIS::MYC::PIAS1::6HIS (O75925 whole entry): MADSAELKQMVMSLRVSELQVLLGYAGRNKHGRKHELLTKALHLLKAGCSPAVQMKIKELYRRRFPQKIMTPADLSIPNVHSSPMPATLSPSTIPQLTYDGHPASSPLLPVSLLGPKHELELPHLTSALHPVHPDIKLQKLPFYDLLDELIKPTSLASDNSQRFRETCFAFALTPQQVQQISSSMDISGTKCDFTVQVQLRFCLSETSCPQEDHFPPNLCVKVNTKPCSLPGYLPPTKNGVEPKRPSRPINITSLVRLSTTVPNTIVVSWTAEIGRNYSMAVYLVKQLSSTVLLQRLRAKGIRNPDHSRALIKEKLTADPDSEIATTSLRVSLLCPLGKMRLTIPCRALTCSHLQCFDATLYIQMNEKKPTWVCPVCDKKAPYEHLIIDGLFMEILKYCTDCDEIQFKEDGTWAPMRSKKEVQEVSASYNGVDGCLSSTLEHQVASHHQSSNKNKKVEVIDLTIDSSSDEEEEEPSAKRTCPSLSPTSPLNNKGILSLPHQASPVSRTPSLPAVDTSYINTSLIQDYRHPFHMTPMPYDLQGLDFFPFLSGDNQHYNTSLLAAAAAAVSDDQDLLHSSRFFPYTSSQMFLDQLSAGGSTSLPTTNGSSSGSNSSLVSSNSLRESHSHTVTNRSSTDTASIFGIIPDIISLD
GST::hGDI1 = molecular target: B1; test: pull-down

Row | Binder | binding result (6HIS::MYC::PIAS1::6HIS) | binding result (GST::hGDI1)
1 | B1 | binds | 
2 | B2 |  | binds
